Results reported in the domain aggregation screens of Martell et al. (2025).

assay: soluble fraction after stress (log2 fold change); higher = more stays soluble; pooled small domains, quantitative proteomics; details: stress: 50 degC
Summary of the method: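 After stress at 50°C, the amount of each protein still soluble was measured. This was done on pooled custom libraries of small protein domains, using high-throughput quantitative proteomics. The figure given is a base-two log fold change and stands for aggregation propensity, with higher values meaning more protein stays in solution.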

Going from “HMFEDEPSEREIRISTLLAAFLKQEDGGTAVSRERFLKENSDVAEDLQILLEMADMIQEMAGP” to “HMGNNKLVLSLAVALKNTPNFLKNYNYKISKDKKFIEILLSKQINEVSDIIINLKKNNINIVDLNIKKR”, the “soluble fraction (log2)” value falls from -0.418 to -1.51.

Compared with “HMAKYEVVAKDIISRIKQNEFETTLKLPTEDEMIEYYQVSRNTVRSALKLLTSQGIIFSRQGSGFYIRQRS”, “HMYFGDADGNKKVDAADALYLKRHLADWEDYRELPQKTNVSWMDEASPANLMILERHIAGWKDYEMLPYT” is higher in “soluble fraction (log2)” value: -0.677 for the first, -0.293 for the second.

First: HMEKGIVSNKTDKGYGFIRSSTGESIFVHINNVGKEAYEQLAKGSRVLFDYEVTDRGKRATKVMLEPSES
Second: HMNTIIIDILPKGLSIAGNQTEPKSLIQQLLMARRADPAQPILLRPAIAVPVQNVVELIDRLTAAGI
The “soluble fraction (log2)” value of the first is higher: 0.0488 for the first, -0.221 for the second.

“HMAPKVHLLKVPVDKIREIIGTGGKVIRQITEETGAKIDISDDGSVKVSSPDQSSIDAATTWITGIIAE” and “HMKEDFPLLEQLRYTGEGADVTGTAEKMESIQALRSAADSGGFRATLGDIQQIPGGGLRFTLSLRGSR” are within 0.2 log units of each other in “soluble fraction (log2)” value: 0.0652 for the first, 0.0335 for the second.

“HMIDLGKSRTWHSENGRAIEARVINISEEQQTVEMQRVDGLKFELSWNQLSKADQTLLAEAAKKTALVA” and “HMFPSLSPEEQAVVDVLQRNNDLQINMLSVQSGLTISRLTALLFQLEMKGVIKPLAGGMYHLL” are within 0.2 log units of each other in “soluble fraction (log2)” value: 0.0711 for the first, 0.0206 for the second.

Going from “HMKLELSNDFYNKIRLARKENGLTQEDLAEKLNMKVGVIQKIENGVRQTDSNLMKISKFLGVEIYVE” to “HMIEMAGGYRKGDRVELHSLKGAAEHNGKQGTVVGPQGERVKVLLDDSDSKTLALKVTNLTKLESA”, the “soluble fraction (log2)” value rises from -1.46 to 0.112.

First: HMRGESFSTLVSILQEMSARKAAQVLNGLSEGLAVEVLRALPSDVAGDILGRMDAAKAAALMEQLST
Second: HMSSDLVDYLVKYVAIVDNQEIEIADSKIGTAELGTTVSEVAKTVGNYYPKATVLSVKITGRNQEIVFEY
The “soluble fraction (log2)” value of the first is higher: -0.17 for the first, -2.83 for the second.

Compared with “HMDKAALGQKLRQARLDKGYTQQSLSEKADIGEVYLSEIERGLKMPSMNLFIKLITALDISADYILR”, “HMQQLTQRELTLLRLLANGYNNRQIAEQLQLAESTVKNNLSALFQKIGVRDRTQAVLFAISQGLVP” is higher in “soluble fraction (log2)” value: -1.44 for the first, -0.656 for the second.

“HMSHGFVHLKGAVQHPGIYPVKENTRWDEVVKAAGGLTAAADIQQVNLAKVASDQESLYVPEKGET” and “HMSQNVQDVFLNHVRKSKNPVTVFLVNGVKLQGIITWFDNFSVLLRREGHTQLVYKHAISTVMPSGPIQLF” are within 0.2 log units of each other in “soluble fraction (log2)” value: 0.098 for the first, 0.0729 for the second.

First: HMTLPELTDRELQILQLLSVGNSSQKIAKQLNISTHTVSTHRKQLLRKLGAQNGADLIRRAQKLGIL
Second: HMSSYAEVMERSKYLQLHKYKIWKSETDGFWRTYYLNEQGKRKMKKLKHSEDMIDFVIEYVQNNE
The “soluble fraction (log2)” value of the first is higher: -0.44 for the first, -2.2 for the second.

Compared with “HMGQYLDAATVAAVYHAYHARNWTQATLAKELKVARPTLSNVLNGREAPSVELAARIRAFLGSPEP”, “HMGNEEEEAIREAEEAIERVLEYGEPQELNPQNGFIRRLQHQLAEKSHLSSESVGVEPYRRVRISK” is higher in “soluble fraction (log2)” value: -1.66 for the first, 0.185 for the second.

Compared with “HMSWGDVKLTMWGAEEDQTMLREMADAFIEQNADKGNVTIEIGVQSESSAKDTVLADPESAADVFA”, “HMHDNPLSAQEQRVLDLIAAGKTSKEIASQLFLSDGTVRNYTTSIFNKLNANNRVEAINIAQENGW” is higher in “soluble fraction (log2)” value: 0.00693 for the first, 0.486 for the second.

First: HMQEINLIGVTGNDLERSALVKLLDGEIIKLSVGDNLNGGRVVDISAVTLTYLKSGQSITLKLPK
Second: HMHLEKGEVVVPDLKGLTMRQVGELLGKLNLRYSFSGTGLAVKQFPESGQIVNQGDIIEVIF
The “soluble fraction (log2)” value of the first is lower: -1.01 for the first, -0.138 for the second.

“HMIPDLPAIGENLYRERKRQQLSMAELAAASGISKAMLSQIEADKVNPTIATLWKIAHALHVDLESLISGG” and “HMPSIGKNILYYRKKRNMTIDELSKKSGVSKSMLSQVEQEKTNPTVVTVWKIARSLDVSINQLLQT” are within 0.2 log units of each other in “soluble fraction (log2)” value: -0.578 for the first, -0.489 for the second.

First: HMNNYEGIVKSVSNSNVYIQVAGRTIGYTISPHTIIMVNGKNVPASELMPGQHVSYTNKGSKLSYININS
Second: HMGDSEMPVSEVVRLAKLDQISSIEISGTKLTIITNNLETYTSRIEENSTIIEILQRAGVDIGGLEIYPHG
The “soluble fraction (log2)” value of the first is higher: -0.103 for the first, -0.492 for the second.

Compared with “HMGRRDLSWQPAAGGVSIDGLKAGEAWTLFGLNGRILKQGYAPEGQMSLAVNAGLFVLRGAESGVIRIAVA”, “HMGDKRPIAVGDYVKLEGQDTPGQVLSISGKNATVGFGMLKTTVKLDRLRHTMAKPQTGASAGVR” is higher in “soluble fraction (log2)” value: -1.25 for the first, 0.178 for the second.

“HMEMKMGHIISKLRYESGYSQVELAEKIGITKGAVGMYETDKRKPDYDTLIKLADLFNVSTDYLLS” and “HMSSPVIQINTRNDGWIIKLLQPAVEKDVLEGYLADVGLKLQSQMMEKILAAPAGTEFHIKRGSNILTE” are within 0.2 log units of each other in “soluble fraction (log2)” value: 0.0501 for the first, 0.00933 for the second.

First: HMLNEWIDYIDEHIKEELTAKNLATVFGYSERHFRNVFQIYYDIKLNDYIRRRKLYFAAQELKKG
Second: HMSTSAAELLRTARQQAGMSQSAVAELAKTSQSAIAMYEAGNREPSLPVLQRLLAATGHQLSLSVLP
The “soluble fraction (log2)” value of the first is lower: -1.17 for the first, -0.228 for the second.

First: HMRQQAFWALVPEERDVLDETGAPLFRIGPTAWALVIEDRGEVFVVRDEDGRVGYLHEVDGVTR
Second: HMNVVGAKGRIIKISSSEEKMAVAEIEGHGEWNIRTNSEIELFVGKSVEVIEMKGNYLLVNQI
The “soluble fraction (log2)” value of the first is lower: -1.52 for the first, -0.0624 for the second.

First: HMDYYASVDQVWRELGLAGPARRALIDDGLFKLSDLRKTSLAAVKELHGMGPNAIRILTTEMKKADLSFR
Second: HMKTAAKVLGESGGKPVTVQSGRYGPYVQLGTIRATLPKDLDQEAVTLDKALELIDAKAERSGK
The “soluble fraction (log2)” value of the first is lower: -2.25 for the first, 0.172 for the second.

Compared with “HMADLTEEQKTLFRLIRDLQPVSSKTLLENSGFTRSTQTRLLNGLIEKQIVIRTGNGPATRYSLR”, “HMGKRRGLKVAEEVFADRGYNPDGTLVNRSLPGAFVKDPDEAIARVIKMVKTKKVTAVNGEEIDIAADSI” is higher in “soluble fraction (log2)” value: -0.246 for the first, 0.132 for the second.

First: HMTSTEQQIEQFIGTLVSLGGSAGNQRLLEALGWQDSIYQRVKQQLIDDGRIRPGRGRGGSVVLAE
Second: HMATETELNLQLMRIIDELHTDHNTWGSRKITDYLRLQGYEINRKRIQRLMDVMDIQVVYPK
The “soluble fraction (log2)” value of the first is higher: -0.074 for the first, -1.98 for the second.

Compared with “HMDPAFAQHHDRALSILHSRGYEVHDSDTDLHWARPVLEFEAYKGSLEYKIVMSYPDLNIIEERVD”, “HMSLNSELIARIENLIASIEDKRSWGYGFAESVLGQVQAGATLSPRQLEIIAKLEKENSYSVQLERQ” is higher in “soluble fraction (log2)” value: -1.06 for the first, -0.765 for the second.

Compared with “HMKQLVVVPRVVSLSEGKAREDVGDRGLVVDRVEMDTLRTPYENTVTRQEPAADSRVPVGTRVTLWISPGV”, “HMSQLDITEARIVVSGGLGMQGPENFKLLEELAKVLGGAVGASRPVVDNGWREYSNQVGQTGKIVAPELYV” is lower in “soluble fraction (log2)” value: 0.261 for the first, -0.0903 for the second.

Compared with “HMDTVEFPVQVNGKVRGKITVAADAGKDAIETAALADEKVLAFLDGATPKKVIVVPGKLVNLVVQPG”, “HMTTYVNGSWSGWNGSTVVKLTDGSVWRQAEYHYEYHYAYRPQARLERDELFVEGMSRGVRV” is lower in “soluble fraction (log2)” value: 0.435 for the first, -0.104 for the second.

“HMDYENGTVKWFNTKKGYGFITRENGEDLFVHFRNIKGRGRRSLNDGEPVTFVVIEGDKGLQADQVSA” and “HMVTVPNYSDPRQYVEWGNANGITINRAVGDTIASMSGRVQDVRDSNGNSVIGKKVKKGSTVTVYIYFLK” are within 0.2 log units of each other in “soluble fraction (log2)” value: -0.025 for the first, -0.00985 for the second.

“HMSSQGSLEKGYSALLDGRLDDAALAYGAALAANPMERDALLGLAYVAHSKGRREEAQALYRKVLR” and “HMVKSIDEIYNEAVKSLANEDYDAAKKLFNYLINNFSDPDKFPLSLFWLAEIEFSSSNFDASKNYYMQ” are within 0.2 log units of each other in “soluble fraction (log2)” value: 0.0715 for the first, 0.0746 for the second.

First: HMRMTLKNKVEDIVHILRKDKQTSLSAILGDNTDRIQTIVVFLAILELVKQHLIKTDQNANFGDINLFPED
Second: HMNMMIIHVNGEKYSFQEPITISELILKLELDSRKIAIEYNLEILPRSLFEITSIKNGDKIEIVHFI
The “soluble fraction (log2)” value of the first is higher: -0.0677 for the first, -2.37 for the second.

Going from “HMGIMSEITHRVLRLLGLLESRSTWTGSDLAERLGVTQRTIRRDVIRLRELGYQVDSVQGLDGGYRMS” to “HMIVVMAADSSREDLDLVQGRIEARGLRAQISQGVERIVIGVLGSLPPDLKDEMELLPGVREVLVIS”, the “soluble fraction (log2)” value rises from -2.48 to -0.405.

“HMKEATTSPLDGIPGIGSKRKKALLSHFGSARSVARADIPDLMRVDGISRQVAETIYGWFHN” and “HMEQLESAVASRTLIGQAQGVIMERYGLSAPNAFSVLSRISQDSNTKLAEVAQQIVATRRIPG” are within 0.2 log units of each other in “soluble fraction (log2)” value: -0.179 for the first, -0.188 for the second.

First: HMSNPPLPFLAKTKVSWTGEQDGDLGFLENEVVKVFHVVDELWWQGSLSRNGAEGIFPRDFVEVISAP
Second: HMDKMIFFKNKENNDDNQLVKIGALLIHAAKIDEDFSQEEENIIKQTLINFGAGNKNINEIIEKAKKME
The “soluble fraction (log2)” value of the first is lower: -1.8 for the first, 0.389 for the second.

“HMQGEASDAQLKAIFAIARKLGITDDFEVHRKASRLAGVPEPEVLPSLKSLTYAQASAVIKALQEELE” and “HMTIGPALAIGGNKVEMTQQGKIQVTNPQGKIKTLSQDEFKKQLVKNADKIEAGQDFEFKKD” are within 0.2 log units of each other in “soluble fraction (log2)” value: 0.084 for the first, 0.263 for the second.

First: HMNQGKLIEMLQEMKEIAHSQNNYLTKNEIANYLGDTVLSKEQLQAVYHYLGENHIEVEGYVYIP
Second: HMEPELLTTKQVASVMNIGEERARAILLSRGVQPVSLPWGKERKTLRWSRRAVMTVIDTLHAEAQAKAGV
The “soluble fraction (log2)” value of the first is higher: 0.035 for the first, -0.582 for the second.

Going from “HMGVARGQAQVTTRQHVVQPGETLYQISKQYGVTVAEILRYNADIEDNTVKVGQTLQIPTPLP” to “HMGNTMIVILKHEARQEQIDRLKQFLLGMGLRIDESKGENSTILGLVGDTTRVDADLISSLDAVEAVRRV”, the “soluble fraction (log2)” value falls from no less than 0.62 to -0.0449.

With “HMDFNNQLKRIRESNGLTQEQLAKILNVSRQSISSWEVGRNFPDLEMIVIISKEFNISLDQLIMG” the “soluble fraction (log2)” value was -2.82.
